Experimental data taken from the supplement of paper PMC7877785.
± gives the uncertainty stated by the source.

Experiment: self-splicing fitness, log relative to wild type (ln ratio); higher = more splicing; Tetrahymena group I intron in knt gene, E. coli kanamycin selection, DiMSum; sequences stand for … in CUCUCU…GGAGGGAAAAGUUAUCAGGCAUGCACCUGGUAGCUAGUCUUUAAACCAAUAGAUUGCAUCGGUUUAAAAGGCAAGACCGUCAAAUUGCGGGAAAGGGGUCAACAGCCGUUCAGUACCAAGUCUCAGGGGAAACUUUGAGAUGGCCUUGCAAAGGGUAUGGUAAUAAGCUGACGGACAUGGUCCUAACCACGCAGCCAAGUCCUAAGUCAACAGAUCUUCUGUUGAUAUGGAUGCAGUUCACAGACUAAAUGUCGGUCGGGGAAGAUGUAUUCUUCUCAUAAGAUAUAGUCGGACCUCUCCUUAAUGGGAGCUAGCGGAUGAAGUGAUGCAACACUGGAGCCGCUGGGAACUAAUUUGUAUGCGAAAGUAUAUUGAUUAGUUUUGGAGUACUCGUGGUCG
In short: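 Colonies from six replicate transformations of E. coli BL21(DE3) were pooled and amplicon-sequenced on an Illumina HiSeq 2500. The library placed an intron with all eight P1ex-region nucleotides randomised inside the knt kanamycin-resistance gene on pET-22b(+), and cells grew overnight at 37°C or 30°C on LB agar with or without 25 μg/mL kanamycin (plus 100 μg/mL carbenicillin, 50 μM IPTG, 0.2% rhamnose). Fitness is the DiMSum error-weighted combination of wild-type-normalised replicate fold changes, kanamycin versus none.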

Row | Sequence | self-splicing fitness (ln) (30 °C) | self-splicing fitness (ln) (37 °C)
1 | UUCUAGCAAUAUUACGCUGG | -4.38 ± 0.46 | –
2 | CGUUAGCAAUAUUACGUUGU | -4.22 ± 0.29 | -2.78 ± 0.22
3 | GCAUAGCAAUAUUACGCAAC | -3.96 ± 0.33 | -2.6 ± 0.37
4 | CCUGAGCAAUAUUACGAUCU | -4.01 ± 0.39 | –
5 | CGCAAGCAAUAUUACGAACU | -0.966 ± 0.065 | -0.369 ± 0.076
6 | CAAGAGCAAUAUUACGUCUG | -1.45 ± 0.15 | -0.511 ± 0.16
7 | UAUAAGCAAUAUUACGGACG | 0.119 ± 0.088 | 0.194 ± 0.11
8 | GCGGAGCAAUAUUACGGUUA | -2.84 ± 0.29 | -0.698 ± 0.21
9 | GCAGAGCAAUAUUACGGCUC | -2.69 ± 0.37 | -1.99 ± 0.46
10 | CGAAAGCAAUAUUACGACCA | -1.24 ± 0.14 | -1.24 ± 0.15
11 | UAUUAGCAAUAUUACGUGGA | -2.75 ± 0.32 | -0.0772 ± 0.19
12 | CUGAAGCAAUAUUACGGUUU | -3.24 ± 0.22 | -2.72 ± 0.18
13 | AGACAGCAAUAUUACGGCAU | -0.544 ± 0.052 | -0.211 ± 0.066
14 | UCUGAGCAAUAUUACGCUUA | -2.24 ± 0.26 | -2.38 ± 0.45
15 | UGUUAGCAAUAUUACGCAUU | -2.6 ± 0.27 | -1.47 ± 0.2
16 | UAGAAGCAAUAUUACGGCAC | -2.42 ± 0.09 | -1.89 ± 0.095
17 | GAGAAGCAAUAUUACGUAAG | -2.72 ± 0.15 | -1.1 ± 0.15
18 | UCAUAGCAAUAUUACGUCGC | -2.62 ± 0.3 | -2.78 ± 0.34
19 | GUUCAGCAAUAUUACGAAGG | -1.55 ± 0.2 | -0.421 ± 0.23
20 | UUAAAGCAAUAUUACGUUGC | -3.24 ± 0.28 | -2.66 ± 0.3
21 | AAUUAGCAAUAUUACGGGGU | -2.06 ± 0.2 | -2.02 ± 0.32
22 | CACUAGCAAUAUUACGAAUG | -1.7 ± 0.075 | -1.01 ± 0.086
23 | UUUCAGCAAUAUUACGGACU | -0.982 ± 0.13 | -0.184 ± 0.11
24 | CCGCAGCAAUAUUACGGCCG | -0.461 ± 0.12 | 0.198 ± 0.15
25 | AAACAGCAAUAUUACGAAUC | -4.43 ± 0.46 | -1.54 ± 0.22
26 | GAUAAGCAAUAUUACGGGCG | -1.41 ± 0.11 | -0.837 ± 0.13

Row | Sequence | self-splicing fitness (ln) (30 °C) | self-splicing fitness (ln) (37 °C)
27 | CGAAAGCAAUAUUACGUGGG | -2.3 ± 0.098 | -2.46 ± 0.14
28 | UGUAAGCAAUAUUACGUCUG | -0.606 ± 0.07 | 0.32 ± 0.093
29 | CGACAGCAAUAUUACGUCUU | -0.458 ± 0.066 | -0.212 ± 0.073
30 | GCCAAGCAAUAUUACGCUUU | -0.998 ± 0.051 | -1.18 ± 0.072
31 | ACUUAGCAAUAUUACGAACC | -0.695 ± 0.21 | -0.285 ± 0.36
32 | GAAAAGCAAUAUUACGUAUG | -1.6 ± 0.079 | -1.74 ± 0.12
33 | CAUAAGCAAUAUUACGAAGU | -3.15 ± 0.17 | -2.75 ± 0.29
34 | UAACAGCAAUAUUACGAACG | -0.391 ± 0.078 | 0.172 ± 0.11
35 | CAACAGCAAUAUUACGUGAC | -4.28 ± 0.22 | -2.23 ± 0.15
36 | CCGUAGCAAUAUUACGGUGU | -3.66 ± 0.17 | -1.85 ± 0.11
37 | CGAUAGCAAUAUUACGACCC | -2.33 ± 0.44 | –
38 | GUCGAGCAAUAUUACGUUAU | -0.538 ± 0.12 | -2.13 ± 0.21
39 | CCCUAGCAAUAUUACGAUAC | -2.76 ± 0.38 | –
40 | GUGUAGCAAUAUUACGAGAC | -3.58 ± 0.42 | -2.4 ± 0.16
41 | CGUGAGCAAUAUUACGCUUA | – | -2.18 ± 0.35
42 | GGUAAGCAAUAUUACGAAGG | -3.74 ± 0.25 | -2.84 ± 0.25
43 | UCCUAGCAAUAUUACGAACU | -2.54 ± 0.19 | -1.6 ± 0.23
44 | CGUAAGCAAUAUUACGUGAC | -3.04 ± 0.15 | -2.33 ± 0.18
45 | AAAUAGCAAUAUUACGCGCU | -0.381 ± 0.15 | -0.606 ± 0.19
46 | AUCUAGCAAUAUUACGCAAG | -1.46 ± 0.17 | -1.29 ± 0.18
47 | GCCGAGCAAUAUUACGGUGU | -2.57 ± 0.11 | -0.986 ± 0.11
48 | CCGAAGCAAUAUUACGCGCC | -2.58 ± 0.23 | -2.27 ± 0.3
49 | GUAGAGCAAUAUUACGCCAU | -1.22 ± 0.39 | –
50 | GCUAAGCAAUAUUACGCGCG | -0.427 ± 0.084 | -0.075 ± 0.13
51 | AGUUAGCAAUAUUACGCUAU | -2.29 ± 0.17 | -1.21 ± 0.14
52 | CGCGAGCAAUAUUACGUUCC | -3.49 ± 0.32 | –

Row | Sequence | self-splicing fitness (ln) (30 °C) | self-splicing fitness (ln) (37 °C)
53 | CUUCAGCAAUAUUACGCGCG | -0.941 ± 0.056 | -0.367 ± 0.087
54 | UUAUAGCAAUAUUACGCUUC | -3.49 ± 0.32 | -3.42 ± 0.43
55 | ACGCAGCAAUAUUACGGUAU | -2.67 ± 0.15 | -1.03 ± 0.12
56 | CAUCAGCAAUAUUACGAACA | -2.82 ± 0.25 | -1.85 ± 0.21
57 | UAAAAGCAAUAUUACGCGCG | -0.577 ± 0.087 | 0.0302 ± 0.11
58 | UUGCAGCAAUAUUACGAGCC | – | -2.7 ± 0.31
59 | UGGUAGCAAUAUUACGCACU | -2.2 ± 0.19 | -0.474 ± 0.22
60 | UCUGAGCAAUAUUACGGGGG | -3.29 ± 0.36 | -2.49 ± 0.25
61 | UUAAAGCAAUAUUACGGGGA | -1.02 ± 0.068 | 0.216 ± 0.1
62 | CGCUAGCAAUAUUACGAUUG | -1.18 ± 0.1 | 0.0898 ± 0.13
63 | AUACAGCAAUAUUACGUACA | -0.262 ± 0.081 | -0.215 ± 0.11
64 | ACGUAGCAAUAUUACGUACA | -2.02 ± 0.25 | -0.998 ± 0.22
65 | ACACAGCAAUAUUACGGGAC | -3.3 ± 0.14 | -2.12 ± 0.14
66 | GCUGAGCAAUAUUACGAUUC | -0.602 ± 0.1 | -0.665 ± 0.11
67 | AAGAAGCAAUAUUACGAACA | -1.06 ± 0.16 | -0.0339 ± 0.16
68 | UUGGAGCAAUAUUACGUUAC | -3.66 ± 0.33 | -2.25 ± 0.24
69 | GCUUAGCAAUAUUACGUAAC | -0.517 ± 0.11 | -0.62 ± 0.24
70 | UUCCAGCAAUAUUACGCUCA | -0.327 ± 0.068 | 0.143 ± 0.089
71 | CAAUAGCAAUAUUACGGCUA | -2.26 ± 0.22 | -2.1 ± 0.19
72 | ACGUAGCAAUAUUACGUUGG | -4.55 ± 0.31 | -2.85 ± 0.25
73 | GGGUAGCAAUAUUACGAAUU | -1.04 ± 0.084 | -0.438 ± 0.11
74 | AAUUAGCAAUAUUACGAUGU | -0.358 ± 0.078 | 0.171 ± 0.11
75 | CCUCAGCAAUAUUACGACAG | -1.06 ± 0.066 | -0.262 ± 0.079
76 | ACUAAGCAAUAUUACGUUGA | -2.67 ± 0.12 | -1.92 ± 0.13
77 | AAAUAGCAAUAUUACGUCUU | 0.225 ± 0.074 | 0.263 ± 0.092
